{"source": "the nanobody polyreactivity screen of Harvey et al. (2022)", "assay": "yeast display, Sf9 membrane polyspecificity reagent, FACS + sequencing; frameworks hold sequencing errors", "in_short": "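A synthetic nanobody library was expressed on Saccharomyces cerevisiae BJ5465 by galactose induction for 36–48 hours. The library was stained for 1 hour at 4 °C with 10% biotinylated, detergent-solubilized Sf9 membrane reagent and enriched with streptavidin microbeads before FACS. Low and high (top ~1%) gates were set on anti-HA fluorescence for expression and streptavidin fluorescence for reagent binding, and each polyreactivity label reflects the gate of origin.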", "data": [{"sequence": "QVQLVDSCGVLVQAGGSLRLSCAASGITFNLYAMGWYRQAPGKERELVAAISNVGSTKYADSVKGRFTISRDNAKNTVYLQMNSLKPEDTAVYYCAAAQWAYWLLYNYWGQGTQVTVSS", "values": [{"measurement": "polyreactivity (PSR sort gate)", "value": "low polyreactivity"}]}, {"sequence": "QVQLVESRGGLFQAGGSLRLSCAASGFIFRDNAMGWYRQAPGKERELVAAISKSGGRTYYADSVKGRFTISRDNAKNTVYLQMNSLKPEDTAVYYCAKVRYQGNGGYYWGQGTQVTVSS", "values": [{"measurement": "polyreactivity (PSR sort gate)", "value": "high polyreactivity"}]}, {"sequence": "QLQLQESGGGLVQAGVCLSCTASGTIFGQGDMGWYRQAPGKERELVATINDGASTYYADSVKGRFTISRDKAKNTVYLQKNSLKPDDNAVYYCAVFTDITTYFGYWGQGTQVTVSS", "values": [{"measurement": "polyreactivity (PSR sort gate)", "value": "low polyreactivity"}]}, {"sequence": "QVQLVESGGGLVQAGGSLRLSCAASGSIFHPNAMGWYRQAPGKERELVAAITQSGATTYYADSVKGRFTISRDNAKNTVYLQMNSLKPEDTAVYYCAAEFTYGHHDYWGQGTQVTVSS", "values": [{"measurement": "polyreactivity (PSR sort gate)", "value": "low polyreactivity"}]}, {"sequence": "QVQLVESGGGLVQAGGRLRLSCAASGFTFYVNAMGWYRQAPGKERELVAAIRGSGGSTYYADSVKGRFTISRVNAKITVYLQMNSLKPEDTAVYYCAKGKARSAQGSSRAYNYWGQGTQVTVSS", "values": [{"measurement": "polyreactivity (PSR sort gate)", "value": "high polyreactivity"}]}, {"sequence": "QVQLEESGGGLVQAGGSLRLSCAASGLIFPVYAMGWYRQAPGKERELVASISWNGGSTYYADSVKGRFTISRDNAKNTVYLQMNSLKPEDTAVYYCNKYPVSLWYYSKDYTYDYWGQGTQVTVSS", "values": [{"measurement": "polyreactivity (PSR sort gate)", "value": "low polyreactivity"}]}, {"sequence": "QVQLVESGGGLVQAGGSLRLSSAASGIIFRGYVMGWYRQAPGKERELVAASTWSGGSTYYADSVKGRFTISRDNAKNTVYLQMNSLKPEDTAVYYCNAVRVRVTSHRIRQLDYGYWGQGTQVTVSS", "values": [{"measurement": "polyreactivity (PSR sort gate)", "value": "low polyreactivity"}]}, {"sequence": "QVQLVESGGGLVQAGGSLRLSCAASGFIFYRYAMGWYRPAPGKVRELVAAINWSGGGTYYADSVKGRFTISRDHAKNTVYLQKNSRKPEETAVYYCAAGRSFRGSYWYEYCGQGTQVTVSS", "values": [{"measurement": "polyreactivity (PSR sort gate)", "value": "high polyreactivity"}]}, {"sequence": "QVQLVESGAGLVQAGGSLRLSCAASGRIFTFNTMGWYRQAPGKERELVAAITSSSARTYYADSVKGRFTISRYNAKNTVYLQMNSLKPEDTAVYYCATRDWVGSVRMGYWGQGTQVTVSS", "values": [{"measurement": "polyreactivity (PSR sort gate)", "value": "high polyreactivity"}]}, {"sequence": "QDQLVESGGGLVQAGGSLRLSCDASGSIFPIYAMGWYRQAPGKERELVAAINRSGGSTYYADSVKGRFTISRDNAKNTVYLQMNSLKPEDTAVYYCKADYGYHNQLFWGYYGWSSDHWGQGTQVTVSS", "values": [{"measurement": "polyreactivity (PSR sort gate)", "value": "low polyreactivity"}]}, {"sequence": "QVQLVESGGGLVQAGGSLRLSCAASGRMFGRYVMGWYRQAAGKERELVASISTRGGRTYYADSVKGRFTISRDIAKNTVYLQMNSLKPEDTAVYYCAVVYPRFGAYDYWGQCTQVTVSS", "values": [{"measurement": "polyreactivity (PSR sort gate)", "value": "high polyreactivity"}]}, {"sequence": "PVQLVESGGGLVQAGGSLRLSCAASGRTFRSNCMGWYRQAPAKERDLVATISEGGGSTYYADSVKGRFTISRDHAKNNVYLQMNSLKTEYTAVYYCAADKWYVLHYLDMNYWGQGTQVTVSA", "values": [{"measurement": "polyreactivity (PSR sort gate)", "value": "high polyreactivity"}]}, {"sequence": "QVQLVESVGGLVQAGGSLRLSCAASGRTFAYYAMGWYRQAPGKERELVAAISYRGGTTYYADSVKGRFTISRDNSKNTVYLQMYILKQEDTAVYYCAAKVGVSWYGYWGKGTQVTVSS", "values": [{"measurement": "polyreactivity (PSR sort gate)", "value": "high polyreactivity"}]}, {"sequence": "QVQLVESGGGLVQAGGSLRLSCAASGSIFGENAMGGYRQAPGKERELVAAITSGGSTDYADSVKGRFTISRDNAKNTVYLQMNSLKPEDTAVYYCAASGRVGPGYWYDSWGQGTQVTVSS", "values": [{"measurement": "polyreactivity (PSR sort gate)", "value": "low polyreactivity"}]}, {"sequence": "QVQLVESGGGLVQAGGSLRLSCAASGRIFSYYTMGWYRQAPGKERELVAAISYRGGSTYADSVKGRFTISRDNAKNTVYLQMNSLKPEDTAVYYCAADDLSYVGYYYGYVDDDYWGQGTQVTVSS", "values": [{"measurement": "polyreactivity (PSR sort gate)", "value": "high polyreactivity"}]}, {"sequence": "QVQLVESGGGLVQAGGSLRLSCAASGRTFTGYVMGWYRQAPGKERELVAVIRYRGGGSYYADSVKGRFTISRDNAKNTVYLQMNSLKPEDTAVYYCARKRVYFGLWMYYWGHGTQVTVSS", "values": [{"measurement": "polyreactivity (PSR sort gate)", "value": "high polyreactivity"}]}, {"sequence": "PVQLVVSGGGLVQAGGSLRLSWAASGLIFRYYAMGWYRQAPGKERELVATIRGGGSTYYADSVKGRFTISRDKAKNTVTLQMNSLKPEATAVDYSAADPYSYGARGARGDYWGQGTQGTVSS", "values": [{"measurement": "polyreactivity (PSR sort gate)", "value": "low polyreactivity"}]}, {"sequence": "QVQLVESGGGLVQEGGSLRLSCAASGRNFDVNAMGWYRQAPGKERELDAAISSGGNTKYSDSVKGRFTISRDKSKNTVYLQMNSLKPVDSAVYYCKADGKAGGDYDYWVQGTQVTVSS", "values": [{"measurement": "polyreactivity (PSR sort gate)", "value": "low polyreactivity"}]}, {"sequence": "QVQLVESGGGLVQAGGSLRLSCAASGRTFYGYAMGWSRQAPGKERELVAAISVSGGGTYYADSVKGRFTISRDNAKYTVYLQMNSLKPEDTAVYYCAAAVYERPRDYYYWGQGTQVTVSS", "values": [{"measurement": "polyreactivity (PSR sort gate)", "value": "low polyreactivity"}]}, {"sequence": "QVQLVESGGGLVQAGGSLRLSCAASGRTFSYYAMGWYRQAPGKERELVASITSGGRTYYADSVKGRFTISRDNAKNTFYLQMNSLKPEDTAVYYCNVDNQYLDRYGRRYGYWGQGTQVTVSS", "values": [{"measurement": "polyreactivity (PSR sort gate)", "value": "low polyreactivity"}]}, {"sequence": "QVQLVESGGGLVQAGGSLRLSCAASGSTFTRYAMGWYRQAPGKERELVASISRSGGRTYYADSVKGRFTISRDNAKNTVYLQMNSLKPEDTAVYYCAKLYLVTKSLLEITGGKYDGDYWGQGTQVTVSS", "values": [{"measurement": "polyreactivity (PSR sort gate)", "value": "high polyreactivity"}]}, {"sequence": "QVQLVESGGGLVQAGGSLRLSCAASGSIFNVNAMGWYRQAPGKERELVAAISSGGDTYYADSVKGRFTISRDNAKNTVYLQMNSLKPEDTAVYYCAKQSYTLYTLLYDYWGQGTQVTVSS", "values": [{"measurement": "polyreactivity (PSR sort gate)", "value": "low polyreactivity"}]}, {"sequence": "QVQLVESGGGLVQAGGSLRLSCAASGRIFSKYAMGWYRQAPGKERELVASIRWRGDRTYYADSVKGRFTISRDNAKNTVYLQMNSLKTEDTAVYYCAADEPGYGVGYWTYPVVPYDYWGQGTQVTVSS", "values": [{"measurement": "polyreactivity (PSR sort gate)", "value": "low polyreactivity"}]}, {"sequence": "QVQLVESAGGLVQAGGSLRLSCAASGSTFRYYAMGWSRQAPGKESELVAVISTSGNTYYADSVKGRFTISRDNAKNSVYLQMNSLIPEDTAVYYCAARGVGGQISQEYDYWGKGTQVTVSS", "values": [{"measurement": "polyreactivity (PSR sort gate)", "value": "low polyreactivity"}]}, {"sequence": "QVQLVESGGGLVQAGGSLRLSCAASGLILYYYTIGWYRQAPGKERELVAAINSGGNTYYADSVKGRFTISRDNAKNTVYLQMNSLKPEDTAVYYCNAYRVRYKRSYDYWGQGTQVTVSS", "values": [{"measurement": "polyreactivity (PSR sort gate)", "value": "high polyreactivity"}]}, {"sequence": "QVQLVESGGGLVQAGGSLRLSCAASGRTFAYYAMGWYRQAPGKVRELVAAISSGGRTNYADSVKGRFTISRDNAKNTVYLQMNSLKPEDTAVYYCARKAAYQIYNGQYGGFGYGYWGQGTQVTVSS", "values": [{"measurement": "polyreactivity (PSR sort gate)", "value": "high polyreactivity"}]}, {"sequence": "QVQRVESGGGLVQAGGSLRLSCAASGRIFRGNAMGWYRQAPGKERELVAAITSSGDSTFYADSVKGRFTISRDNANNTVYLQMNSLKPEDTAVYYCNALVQGKEYYWGQGTQVTVSS", "values": [{"measurement": "polyreactivity (PSR sort gate)", "value": "high polyreactivity"}]}, {"sequence": "QVQLVESGGGLVQAGGSLRLSCAASGSIFTPNAMGWYRQAPGKERELVAAISSSSDRTYYADSVKGRFTISRDNAKNTVYLQLNSLKPEDTAVYYCAAYAQKRYYWGQGTQVTVSS", "values": [{"measurement": "polyreactivity (PSR sort gate)", "value": "high polyreactivity"}]}, {"sequence": "QVQLVESGGGLVQAGGSLRLSCAASGRTFYDNAMGWYRQAPGKERELVAAITKSGGRTYYADSVKGRFTISRDFAKNTVYLQMNSLKPEDTAVYYCAASWPNYLYEYWGQGTQVTVSS", "values": [{"measurement": "polyreactivity (PSR sort gate)", "value": "high polyreactivity"}]}, {"sequence": "QVQLQESGGGLVQAGGSLRLSCAASGSISRYYDMGWYRQAPGKEREFVAGISGGAITYYADSVKGRFTISRDNAKNTVDLQMNSLKPQDTAVYYCAADTGVYQYHSYWGQGTQVTVSS", "values": [{"measurement": "polyreactivity (PSR sort gate)", "value": "low polyreactivity"}]}, {"sequence": "QVQLVESGGGLVQAGGSLRLSCAASGRIFRRYVMGWYRQAPGKERELVARIRIRDSNTYYADSVKGRCTISRDNAKNTVYLQMNSLKPEDTAVYYCAVVANYVYSKYDYWGQGTQVTVSS", "values": [{"measurement": "polyreactivity (PSR sort gate)", "value": "low polyreactivity"}]}]}
